Test [1] has as its target T1, HIS-PDZ1-2 protein (PSD-95 PDZ1-2 tandem, residues 61-249, with tag …) (human, UniProt P78352 61-249). The experiment in a line: ITC. (In general: In ITC the heat of successive injections is recorded.)
The target in test [2] is T2, HIS-PDZ2 protein (PSD-95 PDZ2, residues 155-249, with tag …) (human, UniProt P78352 155-249). The experiment in a line: FP competition, fluorescent NR2B probe.
In test [3] the target is T1, HIS-PDZ1-2 protein (PSD-95 PDZ1-2 …). Nature of the test: FP competition, fluorescent NR2B probe.
Test [4] has the same target. The experiment in a line: FP competition, fluorescent NR2B probe; exact Ki not calculable.
Test [5] has as its target T3, HIS-PDZ1 protein (PSD-95 PDZ1, residues 61-151, with tag …) (human, UniProt P78352 61-151).
T3 construct: expressed in E. coli
The experiment in a line: FP competition, fluorescent NR2B probe.

Test [6] concerns the target T2, HIS-PDZ2 protein (PSD-95 PDZ2, residues …). The experiment in a line: FP competition, fluorescent NR2B probe. This is another data set of the same source.
Test [7] has as its target T4, HIS-PDZ3 protein (PSD-95 PDZ3, residues 309-401, with tag …) (human, UniProt P78352 309-401). The experiment in a line: FP competition, fluorescent CRIPT probe.
For test [8], the target named is T3, HIS-PDZ1 protein (PSD-95 PDZ1, residues …). Nature of the test: FP competition, fluorescent NR2B probe. The source holds these as a separate data set.
In test [9] the target is T2, HIS-PDZ2 protein (PSD-95 PDZ2, residues …). The experiment in a line: FP competition, fluorescent NR2B probe. The source holds these as a separate data set.
The target in test [10] is T4, HIS-PDZ3 protein (PSD-95 PDZ3, residues …). Nature of the test: FP competition, fluorescent CRIPT probe. This is another data set of the same source.
Test [11] has as its target T3, HIS-PDZ1 protein (PSD-95 PDZ1, residues …). The experiment in a line: FP competition, fluorescent NR2B probe. The source holds these as a separate data set.
Test [12] has as its target T2, HIS-PDZ2 protein (PSD-95 PDZ2, residues …). The experiment in a line: FP competition, fluorescent NR2B probe. The source holds these as a separate data set.

Like-named read-outs stand apart in the source and are kept apart here. Square brackets hold non-standard residues; d marks the D form. Primed or numbered codes have the meaning given here. Ends that are not written are not given here. * marks the point of attachment. PEG6‑diacid = 4,7,10,13,16,19,22-Heptaoxapentacosane-1,25-dioic acid, O=C(O)CCOCCOCCOCCOCCOCCOCCOCCC(=O)*; PEG8‑diacid = PEG8-diacid linker: 4,7,10,13,16,19,22,25,28-nonaoxahentriacontane-1,31-dioic acid; cyclohexylethyl″ = cyclohexylethyl group on the nitrogen (N-alkyl substituent), C1CCC(CC*)CC1; PEG4‑diacid = 4,7,10,13,16-pentaoxanonadecane-1,19-dioic acid; (naphthalen-2-yl)ethyl = c1ccc2cc(CC*)ccc2c1; Cyclohexylmethyl = C1CCC(C*)CC1; NMeE = CN[C@@H](CCC(=O)O)C(=O)O; cyclohexylethyl = C1CCC(CC*)CC1; NMeA = CN[C@@H](C)C(=O)O; Bn = c1ccc(C*)cc1

{PEG2‑diacid}-IESDV (also: dimer: two peptides N-terminally joined via PEG2-diacid, Dimeric ligand) [Compound 79 (IESDV dimerized with PEG2-diacid)] showed a Kd in [1] of 0.22 µM. The figures for the Ki in [2] and in [3] were 4.7 µM and 0.27 µM, respectively.

Take {PEG8‑diacid}-IESDV (also: dimer: two peptides N-terminally joined via PEG8-diacid, Dimeric ligand) [(IESDV)2PEG8 (76)]: in test [1], the Kd amounted to 0.12 µM. Further, the Ki in test [2] is 2.6 µM; in test [4] it was ~0.1 µM.

As for ATAV [ATAV (68)], the Ki came out at 64 µM in [5], 73 µM in [6] and 400 µM in test [7].

B1: ETDV (64) (peptide)
peptide: ETDV
notes: also called 28 (ESDV with Ser P^-2 replaced by Thr)
On to B1, for which, in [7], the binding result is listed as “no binding”.

B2: N-(3,4-Difluorophenyl)propyl-ETAV (62) (peptide)
peptide: ETAV
modifications: not fully specified
notes: The printed formula C25H37F2N4O8 points to an ethyl spacer, the printed name says propyl
Regarding B2, the Ki in test [8] is 0.98 µM; in test [9], 1 µM; in test [10], 7.8 µM.

Take Bn-ETAV [N-Benzyl-ETAV (58)]: the values for the Ki in test [8], in test [9] and in test [10] were 7.2 µM, 5.2 µM and 63 µM, respectively.

With {(naphthalen-2-yl)ethyl}-ETAV [N-(Naphtalene-2-yl)ethyl-ETAV (63)], the Ki worked out at 1 µM in test [8], 0.95 µM in test [9] and 10 µM in test [10].

With cyclohexylethyl-ETAV [N-Cyclohexylethyl-ETAV (56)], the Ki is 0.94 µM in [8]; 0.45 µM in test [9]; 0.94 µM in test [5]; 0.45 µM in test [6]; 11 µM in [10]; 11 µM in [7].

In the case of [NMeE]TQV [EMeTQV (39)], the “fold more potent than WT peptide 1” value in test [11] is ~3 fold.

As for Phenylethyl-ETAV [N-Phenylethyl-ETAV (59)], in test [9], the Ki is 1.6 µM.

On to ESQV [Compound 22 (ESDV with Asp P^-1 replaced by Gln)], for which the binding result in [11] and in test [12] was “binds” in each case.

For [NMeE]TDV [EMeTDV (36)], in test [11], the “fold more potent than WT peptide 1” value was ~3 fold.

B3: ATDV (71), N-cyclohexylethyl (peptide)
peptide: {cyclohexylethyl″}-ATDV-OH
SMILES: CC(C)[C@H](NC(=O)[C@H](CC(=O)O)NC(=O)[C@@H](NC(=O)[C@H](C)NCCC1CCCCC1)[C@@H](C)O)C(=O)O
Turning to B3, the Ki was determined as 5.8 µM in test [5] and 3.6 µM in test [6].

For the molecule {cyclohexylethyl″}-QTDV-OH [QTDV (70), N-cyclohexylethyl], the binding result in test [7] was “no binding”.

B4: N-(3,4-Dichlorophenyl)propyl-ETAV (61) (peptide)
peptide: ETAV
modifications: not fully specified
notes: The printed formula C25H37Cl2N4O8 and the comparison with 59 point to an ethyl spacer, the printed name says propyl
Turning to B4, the results for the inhibition constant Ki in test [8], in test [9] and in test [10] were 2.4 µM, 1.1 µM and 6.7 µM, respectively.

In the case of butyl-ETAV [N-Butyl-ETAV (54)], the Ki in [8] is 8.4 µM; in test [9], 4 µM.

As for phenylpropyl-ETAV [N-Phenylpropyl-ETAV (60)], the Ki in test [9] is 3.1 µM.

B5: ETDV (69), N-cyclohexylethyl (peptide)
peptide: {cyclohexylethyl″}-ETDV-OH
SMILES: CC(C)[C@H](NC(=O)[C@H](CC(=O)O)NC(=O)[C@@H](NC(=O)[C@H](CCC(=O)O)NCCC1CCCCC1)[C@@H](C)O)C(=O)O
On to B5, for which the figures for the Ki in test [5] and in test [6] were 1.8 µM and 0.75 µM, respectively. In addition, the binding result in test [7] is on record as “no binding”.

On to cyclohexylethyl-QTAV [QTAV (72), N-cyclohexylethyl], for which the Ki in test [5] was determined as 21 µM; in test [6], 12 µM; in [7], 141 µM.

Consider ESEV [Compound 23 (ESDV with Asp P^-1 replaced by Glu)], for which the binding result in test [11] and in [12] was “binds” throughout.

With cyclohexylethyl-ATAV [ATAV (73), N-cyclohexylethyl], the Ki in test [5] came out at 8.9 µM; in test [6], 8.1 µM; in test [7], 89 µM.

For the molecule Cyclohexylmethyl-ETAV [N-Cyclohexylmethyl-ETAV (55)], the figures for the Ki in [8], in test [9] and in [10] were 1 µM, 1.3 µM and 21 µM, respectively.

QTAV [QTAV (67)]: the values for the Ki in test [5] and in test [6] were 112 µM and 108 µM, respectively.

As to Et-ETAV [N-Ethyl-ETAV (52)], the Ki in test [8] was 9.3 µM; in [9] it was 9.6 µM; in test [10] it was 69 µM.

With {PEG4‑diacid}-IAT[NMeA]V-OH (also: dimer: two peptides N-terminally joined via PEG4-diacid, Dimeric ligand) [(IATAMeV)2PEG4 (90)], the results for the Ki in [2] and in test [3] were 103 µM and 13 µM, respectively.

B6: (IATAV)2PEG12 (87) (peptide)
peptide: IATAV
modifications: also: dimer: two peptides joined at N-terminal amines by amide bonds through a PEG12-diacid linker
notes: Dimeric ligand
In the case of B6, the Ki in test [2] amounted to 13 µM; in [3], 1 µM.

B7: (IATAV)2PEG4 (88) (peptide)
peptide: IATAV
modifications: also: dimer: two peptides joined at N-terminal amines by amide bonds through a PEG4-diacid linker
notes: Dimeric ligand
The molecule B7 had a Ki in test [3] of 1.1 µM.

As to IAT[NMeA]V [IATAMeV (89)], the inhibitory constant (Ki) in [2] worked out at 104 µM; in test [3], 142 µM.

B8: Compound 84 (ESDV dimerized with PEG12) (peptide)
peptide: ESDV
modifications: also: dimer: two peptides joined at N-terminal amines by amide bonds through a PEG12-diacid linker
notes: Dimeric ligand
With B8, in [3], the Ki was determined as 0.92 µM.

B9: Compound 85 (ESDV dimerized with PEG8) (peptide)
peptide: ESDV
modifications: also: dimer: two peptides joined at N-terminal amines by amide bonds through a PEG8-diacid linker
notes: Dimeric ligand
Turning to B9, the Ki in [2] was found to be 19 µM; in test [3], 1 µM.

In [1], {PEG6‑diacid}-IESDV (also: dimer: two peptides N-terminally joined via PEG6-diacid, Dimeric ligand) [(IESDV)2PEG6 (77)] showed a dissociation constant Kd of 0.039 µM. For the same molecule, the figures for the inhibition constant (Ki) in test [2] and in test [4] were 2 µM and ~0.1 µM, respectively.

For the molecule {PEG1‑diacid}-IESDV (also: dimer: two peptides N-terminally joined via PEG1-diacid, Dimeric ligand) [Compound 80 (IESDV dimerized with PEG1-diacid)], the dissociation constant Kd in test [1] was 0.46 µM. In addition, the results for the Ki in [2] and in [3] were 4.7 µM and 0.56 µM, respectively.

As to ETAV [ETAV (51)], the Ki in test [10] and in test [7] was 260 µM in each case.

Turning to QTDV [QTDV (65)], the inhibition constant (Ki) in [5] was found to be 58 µM; in [6], 60 µM. The binding result in test [7] is “no binding”.

In the case of ATDV [ATDV (66)], the Ki is 30 µM in test [5] and 38 µM in test [6]. The binding result in test [7] was “no binding”.

In general, Kd refers to a measure of binding affinity in units of concentration. Low readings indicate tighter binding, high ones weaker binding. In general, Ki refers to a measure of affinity in units of concentration, obtained from inhibition or displacement.

(Values after patent US20160176924A1 (UNIVERSITY OF COPENHAGEN, published 2016).)
